The supplement of paper PMC9112550, “Optimization of the antimicrobial peptide Bac7 by deep mutational scanning” (BMC Biology, 2022)
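Note: peptides expressed intracellularly from a pBAD plasmid library in pooled LB shake-flask culture, induced with 0.3% L-arabinose, DNA abundance read by NGS, three biological replicates, DESeq2 with apeglm shrinkage.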

Each sequence was assayed on Escherichia coli TOP10 (assay: shrunken log2 fold change of peptide-encoding DNA abundance (4.5 h post-induction vs induction); higher = less antimicrobial activity (less host growth inhibition)). Details: time post-induction: 4.5 h; library: site-saturation at positions 5, 18, 19, 20.
In the case of RRIRCRPPRLPRPRPRPCYTPRP, the “shrunken log2 fold change” value is reported as -0.397. With RRIRIRPPRLPRPRPRPQTDPRP the “shrunken log2 fold change” value was -0.232. In the case of RRIRDRPPRLPRPRPRPAMLPRP, the “shrunken log2 fold change” value is reported as 0.278. RRIRCRPPRLPRPRPRPMSGPRP was tested, and the “shrunken log2 fold change” value was 0.198. With RRIRKRPPRLPRPRPRPTGAPRP the “shrunken log2 fold change” value was 1.09. With RRIRPRPPRLPRPRPRPMWTPRP the “shrunken log2 fold change” value was 0.0739. RRIRNRPPRLPRPRPRPGIEPRP was tested, and the “shrunken log2 fold change” value was -0.0795. With RRIRDRPPRLPRPRPRPCLPPRP the “shrunken log2 fold change” value was -0.272. For RRIRYRPPRLPRPRPRPATPPRP, the “shrunken log2 fold change” value was 0.158. In the case of RRIRRRPPRLPRPRPRPPLQPRP, the “shrunken log2 fold change” value is reported as 0.682. For RRIRRRPPRLPRPRPRPERTPRP, the “shrunken log2 fold change” value was 0.232. In the case of RRIRRRPPRLPRPRPRPQCNPRP, the “shrunken log2 fold change” value is reported as 0.0615. RRIRERPPRLPRPRPRPCERPRP was tested, and the “shrunken log2 fold change” value was -0.0138. With RRIRYRPPRLPRPRPRPEYQPRP the “shrunken log2 fold change” value was -0.00141. RRIRTRPPRLPRPRPRPNDQPRP was tested, and the “shrunken log2 fold change” value was -0.212. RRIRSRPPRLPRPRPRPPIWPRP was tested, and the “shrunken log2 fold change” value was 0.0326. In the case of RRIRDRPPRLPRPRPRPVQIPRP, the “shrunken log2 fold change” value is reported as -0.0711. In the case of RRIRTRPPRLPRPRPRPPSVPRP, the “shrunken log2 fold change” value is reported as 0.352. In the case of RRIRRRPPRLPRPRPRPRQIPRP, the “shrunken log2 fold change” value is reported as 0.452. RRIRLRPPRLPRPRPRPWCTPRP was tested, and the “shrunken log2 fold change” value was 0.0254. For RRIRPRPPRLPRPRPRPKCPPRP, the “shrunken log2 fold change” value was 0.131. RRIRQRPPRLPRPRPRPMHTPRP was tested, and the “shrunken log2 fold change” value was -0.026. With RRIRTRPPRLPRPRPRPNVHPRP the “shrunken log2 fold change” value was -0.637. In the case of RRIRYRPPRLPRPRPRPITDPRP, the “shrunken log2 fold change” value is reported as -0.162. With RRIRVRPPRLPRPRPRPYLNPRP the “shrunken log2 fold change” value was -0.16. With RRIRIRPPRLPRPRPRPGIFPRP the “shrunken log2 fold change” value was -0.5. In the case of RRIRPRPPRLPRPRPRPHILPRP, the “shrunken log2 fold change” value is reported as -0.381. With RRIRRRPPRLPRPRPRPPDSPRP the “shrunken log2 fold change” value was 0.289. With RRIRHRPPRLPRPRPRPRPYPRP the “shrunken log2 fold change” value was 0.0624. In the case of RRIRLRPPRLPRPRPRPQCFPRP, the “shrunken log2 fold change” value is reported as -0.0127. For RRIRWRPPRLPRPRPRPRKNPRP, the “shrunken log2 fold change” value was 0.0168. For RRIRGRPPRLPRPRPRPCYEPRP, the “shrunken log2 fold change” value was 0.219. For RRIRGRPPRLPRPRPRPQMGPRP, the “shrunken log2 fold change” value was 0.339. In the case of RRIRVRPPRLPRPRPRPGAYPRP, the “shrunken log2 fold change” value is reported as -0.0376. With RRIRSRPPRLPRPRPRPMRVPRP the “shrunken log2 fold change” value was 0.691. With RRIRQRPPRLPRPRPRPYLMPRP the “shrunken log2 fold change” value was -1.39. For RRIRIRPPRLPRPRPRPEKVPRP, the “shrunken log2 fold change” value was -0.13. RRIRMRPPRLPRPRPRPNYEPRP was tested, and the “shrunken log2 fold change” value was -0.122. RRIRPRPPRLPRPRPRPLQNPRP was tested, and the “shrunken log2 fold change” value was -0.179. RRIRMRPPRLPRPRPRPPENPRP was tested, and the “shrunken log2 fold change” value was -0.0255. RRIRYRPPRLPRPRPRPFAQPRP was tested, and the “shrunken log2 fold change” value was -0.159. For RRIRHRPPRLPRPRPRPIWSPRP, the “shrunken log2 fold change” value was -0.085. With RRIRPRPPRLPRPRPRPMRRPRP the “shrunken log2 fold change” value was 0.537. For RRIRYRPPRLPRPRPRPPAVPRP, the “shrunken log2 fold change” value was -0.143. RRIRLRPPRLPRPRPRPIKPPRP was tested, and the “shrunken log2 fold change” value was 0.0261. For RRIRVRPPRLPRPRPRPPQEPRP, the “shrunken log2 fold change” value was 0.177. In the case of RRIRERPPRLPRPRPRPTCVPRP, the “shrunken log2 fold change” value is reported as -0.0193. In the case of RRIRDRPPRLPRPRPRPRFLPRP, the “shrunken log2 fold change” value is reported as -0.201. With RRIRWRPPRLPRPRPRPQPNPRP the “shrunken log2 fold change” value was 0.127. RRIRDRPPRLPRPRPRPNFEPRP was tested, and the “shrunken log2 fold change” value was 0.282. In the case of RRIRMRPPRLPRPRPRPEFAPRP, the “shrunken log2 fold change” value is reported as 0.679. For RRIRNRPPRLPRPRPRPSRVPRP, the “shrunken log2 fold change” value was 0.0304. In the case of RRIRLRPPRLPRPRPRPELDPRP, the “shrunken log2 fold change” value is reported as 0.273. With RRIRCRPPRLPRPRPRPPKQPRP the “shrunken log2 fold change” value was 0.123. In the case of RRIRIRPPRLPRPRPRPHCLPRP, the “shrunken log2 fold change” value is reported as -0.104. For RRIRMRPPRLPRPRPRPYGIPRP, the “shrunken log2 fold change” value was -0.0497. RRIRQRPPRLPRPRPRPFKLPRP was tested, and the “shrunken log2 fold change” value was -0.152. With RRIRGRPPRLPRPRPRPWWFPRP the “shrunken log2 fold change” value was -0.03. With RRIRQRPPRLPRPRPRPPTDPRP the “shrunken log2 fold change” value was 0.0902. RRIRLRPPRLPRPRPRPTDGPRP was tested, and the “shrunken log2 fold change” value was -0.0875. RRIRTRPPRLPRPRPRPDIMPRP was tested, and the “shrunken log2 fold change” value was -0.624. In the case of RRIRWRPPRLPRPRPRPRHRPRP, the “shrunken log2 fold change” value is reported as 0.138. For RRIRVRPPRLPRPRPRPSLMPRP, the “shrunken log2 fold change” value was -0.368. In the case of RRIRTRPPRLPRPRPRPFSWPRP, the “shrunken log2 fold change” value is reported as -0.294. For RRIRRRPPRLPRPRPRPRCYPRP, the “shrunken log2 fold change” value was 0.00798. For RRIRKRPPRLPRPRPRPTPLPRP, the “shrunken log2 fold change” value was 0.848. For RRIRERPPRLPRPRPRPSQAPRP, the “shrunken log2 fold change” value was 0.151. In the case of RRIRHRPPRLPRPRPRPVAWPRP, the “shrunken log2 fold change” value is reported as 0.252. For RRIRCRPPRLPRPRPRPYMQPRP, the “shrunken log2 fold change” value was -0.918. With RRIRWRPPRLPRPRPRPWAQPRP the “shrunken log2 fold change” value was -0.381. In the case of RRIRTRPPRLPRPRPRPKHLPRP, the “shrunken log2 fold change” value is reported as -0.233. For RRIRGRPPRLPRPRPRPCGCPRP, the “shrunken log2 fold change” value was 1.09. For RRIRERPPRLPRPRPRPREYPRP, the “shrunken log2 fold change” value was -0.242. With RRIRFRPPRLPRPRPRPRARPRP the “shrunken log2 fold change” value was 0.661. With RRIRPRPPRLPRPRPRPYTCPRP the “shrunken log2 fold change” value was -0.179.
